Measurements reported in paper PMC11672854, “A High-Affinity Monoclonal Antibody Against the Pancreatic Ductal Adenocarcinoma Target, Anterior Gradient-2 (AGR2/PDIA17)” (Antibodies, 2024).
Residue numbers refer to the chain shown, from its start. Names may count otherwise.

What was measured:
[1] = target: T1, LY6/PLAUR Domain Containing 3, LYPD3 (31-325) with C-terminal 6x-His tag (UniProt O95274 31-325); assay: ELISA; MaxiSorp plates coated with 1 µg AGR2 (or BSA); varying LYPD3 in 50 mM Tris, 140 mM NaCl, 1% BSA, 0.05% Tween 20, pH 8.0, 1 h at 37 °C; detection with anti-6x-His-peroxidase; settings: both partners purified
T1 construct: LY6/PLAUR Domain Containing 3 (LYPD3, C4.4A), residues 31-325; also called C4.4A; source: expi293F, transfected, secreted, purified from media (HisTrap Excel); not shown: His6, C-terminal, kept
T1 sequence (looked up): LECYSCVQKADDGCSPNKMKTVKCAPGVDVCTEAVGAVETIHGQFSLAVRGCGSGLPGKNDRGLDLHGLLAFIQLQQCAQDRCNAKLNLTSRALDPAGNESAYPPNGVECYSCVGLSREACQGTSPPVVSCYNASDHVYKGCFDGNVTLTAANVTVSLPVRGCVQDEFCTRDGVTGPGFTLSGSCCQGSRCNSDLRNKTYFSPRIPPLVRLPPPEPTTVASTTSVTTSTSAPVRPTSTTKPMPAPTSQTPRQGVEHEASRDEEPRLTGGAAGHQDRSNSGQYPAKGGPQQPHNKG

[2] = target: T2, Anterior Gradient-2 (AGR2/PDIA17), AGR2 (21-175), 6x-His tag removed (human, UniProt O95994)
[3] = target: T2, Anterior Gradient-2 (AGR2/PDIA17), AGR2 …; assay: ELISA; MaxiSorp plates coated with 1 µg AGR2 (wild type or mutant), PDI, TXN or BSA; varying MAb in 50 mM Tris, 140 mM NaCl, 1% BSA, 0.05% Tween 20, pH 8.0, 1 h at 37 °C; detection with Protein L-peroxidase; settings: both partners purified

B1: Anterior Gradient-2 (AGR2/PDIA17), AGR2 (21-175), 6x-His tag removed (natural protein, human, UniProt O95994 21-175, looked up)
chain: RDTTVKPGAKKDTKDSRPKLPQTLSRGWGDQLIWTQTYEEALYKSKTSNKPLMIIHHLDECPHSQALKKVFAENKEIQKLAEQFVLLNLVYETTDKHLSPDGQYVPRIMFVDPSLTVRADITGRYSNRLYAYEPADTALLLDNMKKALKLLKTEL
notes: Anterior Gradient-2 (AGR2/PDIA17), human, residues 21-175; tag removed with 8x-His-TEV; also called rAGR2; recombinant AGR2; source: E. coli BL21(DE3), purified (HisTrap, TEV cleavage, second HisTrap flow-through); not shown: His6, N-terminal, cleaved
- binding result [1]: binds

B2: S31R/A53Y/T59P (antibody, V domains shown)
VH: EVQLLESGGGLVQPGGSLRLSCAASGFTFSRYAMSWVRQAPGKGLEWVSGISYQGAHTPYADSVKGRFTISRDNSKNTLYLQMNSLRAEDTAVYYCAKTYKGFDYWGQGTLVTVSS
VL: DIQMTQSPSSLSASVGDRVTITCRASQSISSYLNWYQQKPGKAPKLLIYSASRLQSGVPSRFSGSGSGTDFTLTISSLQPEDFATYYCQQGRRMPPTFGQGTKVEIK
- binding result [2]: binds

B3: affinity-matured anti-AGR2 MAb S31R (VH mutant of MAb-15, human IgG1) (antibody, V domains shown)
VH: B2 VH with Y53A, P59T
VL: B2 VL
notes: as the VH of m4 (scFv-15) with the stated change; human IgG1 heavy chain constant region; IgG1; source: expi293F, transfected, purified from media (rProteinA)
- EC50 [3]: 0.156 nM

B4: anti-AGR2 monoclonal antibody MAb-15 (VH-VL of scFv-15 in a full human IgG1 backbone) (antibody, V domains shown)
VH: B2 VH with R31S, Y53A, P59T
VL: B2 VL
notes: VH of scFv-15 (as the VH of m3); human IgG1 heavy chain constant region (full human IgG1 backbone); VL of scFv-15 (as the VL of m3); light chain constant region; IgG1; also called original anti-AGR2 antibody; parent MAb-15; source: expi293F, transfected, purified from media (rProteinA)
- EC50 [3]: 2.03 nM

B5: affinity-matured anti-AGR2 MAb S31R/A53F (VH mutant of MAb-15, human IgG1) (antibody, V domains shown)
VH: B2 VH with Y53F, P59T
VL: B2 VL
notes: as the VH of m4 (scFv-15) with the stated changes; human IgG1 heavy chain constant region; IgG1; source: expi293F, transfected, purified from media (rProteinA)
- EC50 [3]: 0.0385 nM

B6: affinity-matured anti-AGR2 MAb S31R/A53Y (VH mutant of MAb-15, human IgG1) (antibody, V domains shown)
VH: B2 VH with P59T
VL: B2 VL
notes: as the VH of m4 (scFv-15) with the stated changes; human IgG1 heavy chain constant region; IgG1; also called anti-AGR2 MAb clone S31R/A53Y; source: expi293F, transfected, purified from media (rProteinA)
- EC50 [3]: 0.0404 nM

B7: S31R/A53F/T59P (antibody, V domains shown)
VH: B2 VH with Y53F
VL: B2 VL
- binding result [2]: binds
